According to IntAct's records for PubMed 20067578:

Molecular target: mp2k6_human MAP2K6 (UniProt P52564)
Sequence of UniProt P52564 (P52564 whole entry): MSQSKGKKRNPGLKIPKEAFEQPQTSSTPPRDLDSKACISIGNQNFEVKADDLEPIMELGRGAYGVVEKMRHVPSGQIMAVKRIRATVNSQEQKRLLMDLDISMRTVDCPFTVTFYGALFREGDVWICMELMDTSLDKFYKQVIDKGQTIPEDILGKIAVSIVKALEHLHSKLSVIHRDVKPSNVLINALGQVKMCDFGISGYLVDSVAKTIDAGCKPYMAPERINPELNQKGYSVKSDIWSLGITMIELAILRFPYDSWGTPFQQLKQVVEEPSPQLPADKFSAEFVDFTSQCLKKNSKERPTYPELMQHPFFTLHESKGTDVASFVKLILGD

effect of a mutation on the interaction: increasing interaction
Substance: Leucine-rich repeat serine/threonine-protein kinase 2 (Homo sapiens), Q5S007 R1441C
